Data: article PMC11365945

T1: Sh1 (Glycine soja, UniProt I1MNH4 1-230+=TTT+231-511, T232A;internal_change)
T1 sequence: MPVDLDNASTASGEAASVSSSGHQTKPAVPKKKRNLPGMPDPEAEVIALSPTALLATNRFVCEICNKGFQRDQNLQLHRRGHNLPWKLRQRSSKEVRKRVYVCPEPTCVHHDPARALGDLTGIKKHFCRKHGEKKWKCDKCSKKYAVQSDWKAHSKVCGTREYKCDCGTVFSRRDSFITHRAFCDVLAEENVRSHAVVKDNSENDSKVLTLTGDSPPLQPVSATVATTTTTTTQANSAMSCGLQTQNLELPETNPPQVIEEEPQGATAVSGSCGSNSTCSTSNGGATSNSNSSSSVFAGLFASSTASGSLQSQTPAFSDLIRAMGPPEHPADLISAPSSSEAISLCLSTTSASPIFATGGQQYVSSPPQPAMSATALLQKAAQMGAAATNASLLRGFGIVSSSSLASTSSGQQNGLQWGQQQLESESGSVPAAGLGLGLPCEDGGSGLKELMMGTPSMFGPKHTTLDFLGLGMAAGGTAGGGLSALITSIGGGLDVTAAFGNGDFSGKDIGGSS

B1: SHAT1-5 promoter S2-5 (dsDNA)
DNA 1: TCATGTTATTTTTAAATTATGAAACAAAATAATATATAAAATTCTTGCTTTATCACAAGT
DNA 2: ACTTGTGATAAAGCAAGAATTTTATATATTATTTTGTTTCATAATTTAAAAATAACATGA
B2: SHAT1-5 promoter S2-6 (dsDNA)
DNA 1: CCATTTTGAGGTATTTTTTATTTCTTCGTGTGAAATCTTGTACATTCTTTGGAGATGCTG
DNA 2: CAGCATCTCCAAAGAATGTACAAGATTTCACACGAAGAAATAAAAAATACCTCAAAATGG
B3: SHAT1-5 promoter S2-11 (dsDNA)
DNA 1: TTTTAAAATAAAAAAAAAAACAAATAGATATCATGTTATTTTTAAATTATGAAACAAAAT
DNA 2: ATTTTGTTTCATAATTTAAAAATAACATGATATCTATTTGTTTTTTTTTTTATTTTAAAA
B4: SHAT1-5 promoter S2-12 (dsDNA)
DNA 1: AATATATAAAATTCTTGCTTTATCACAAGTCCATTTTGAGGTATTTTTTATTTCTTCGTG
DNA 2: CACGAAGAAATAAAAAATACCTCAAAATGGACTTGTGATAAAGCAAGAATTTTATATATT

Biological target: T1, Sh1
Assay: EMSA

Binding result, binds:
B1, B2, B3, B4
